Bridges are numbered along the chain shown (N, C = ends). Where no end group is shown, it is not given here. [ ]: non-standard residue; d: D form.
T1: asialofetuin (UniProt P12763 19-359, limits assumed, glycoprotein; desialylated glycans, described as L-fucose bearing)
T1 construct: also called L-fucose bearing asialofetuin; model glycoprotein
T1 sequence (looked up): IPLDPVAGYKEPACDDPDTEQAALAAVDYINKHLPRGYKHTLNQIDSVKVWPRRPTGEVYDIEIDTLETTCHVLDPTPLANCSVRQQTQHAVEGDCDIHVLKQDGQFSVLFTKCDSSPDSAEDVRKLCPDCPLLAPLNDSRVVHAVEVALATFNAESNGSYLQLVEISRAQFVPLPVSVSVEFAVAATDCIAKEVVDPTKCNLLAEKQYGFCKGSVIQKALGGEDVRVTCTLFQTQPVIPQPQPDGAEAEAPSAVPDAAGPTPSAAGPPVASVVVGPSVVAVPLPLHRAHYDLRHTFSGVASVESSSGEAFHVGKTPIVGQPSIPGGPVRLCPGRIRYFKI

B1: Control peptide (scrambled OL sequence) (peptide)
peptide: RVFSLCNATYPYKGACP
modifications: disulfide 6-16
B2: DADLE-OL (peptide)
peptide: YASPKCFRY[dA]GF[dL]LACT
modifications: disulfide 6-16
B3: Odorranalectin (OL) (peptide)
peptide: YASPKCFRYPNGVLACT
modifications: disulfide 6-16
notes: Synthetic copy of the natural product; on-resin disulfide formation by I2 oxidation; also called unmodified OL; OL natural product
B4: DADLE-OL II (peptide)
peptide: Y[dA]GF[dL]KCFRYPNGVLACT
modifications: disulfide 7-17

Columns and labels:
asialofetuin [1] = molecular target: T1, asialofetuin; assay: ITC
[2] = molecular target: T2, delta opioid receptor (DOR); assay: protein binding radioassay
T2 construct: the library screen elsewhere used human clones in CHO cells

mu opioid receptor (MOR) = molecular target: T3, mu opioid receptor (MOR); assay: protein binding radioassay
T3 construct: see m11 for the human receptor of the library screen

asialofetuin [3] = molecular target: T1, asialofetuin; assay: ITC, as cited in the text from Table 1; conflicts with Table 1, which prints 6.4 × 10^4 nM for OL and 4.2 × 10^4 nM for DADLE-OL
[4] = molecular target: T4, kappa opioid receptor (KOR); assay: protein binding radioassay
T4 construct: see m12 for the human receptor of the library screen

Binder | Kd (asialofetuin [1]) [µM] | Kd [2] [µM] | Kd (mu opioid receptor (MOR)) [µM] | Kd (asialofetuin [3]) [µM] | Kd [4] [µM]
B1 | 760 | – | – | – | –
B2 | 42 | 0.064 | 3.54 | – | –
B3 | 64 | – | – | 42 | –
B4 | 33 | 0.275 | 0.123 | – | 1.08
